The series can be described thus: SGF digest of 168 nutritive polypeptide library, intact protein by LC-MS/MS. The class given is in vitro ADME. The conditions noted are these: 168 nutritive polypeptide library SGF digest, LC-MS/MS spectral counts. The method, then: The in vitro intact half-life of multiple polypeptides in a complex mixture was determined using the simulated gastric in vitro digestion described above. Briefly, the 168 nutritive polypeptide library was generated as described herein by cloning, transforming, and expressing a gene library encoding 168 proteins as a single mixture. The recombinantly expressed proteins were purified from host cell proteins by IMAC purification as described herein.
The 168 Protein Library was treated with SGF as described above and the t=0 and t=10 min samples were analyzed for intact protein by LC-MS/MS. To begin, 10 μg of sample was loaded onto a 10% SDS-PAGE gel (Invitrogen) and run approximately 5 cm into the gel. The gel was excised into ten fractions from 100 kD to the dye front and the gel slices were processed by washing with 25 mM ammonium bicarbonate, followed by acetonitrile. Gel fractions were then reduced with 10 mM dithiothreitol at 60° C., followed by alkylation with 50 mM iodoacetamide at room temperature. Finally, the samples were digested with trypsin (Promega) at 37° C. for 4 h and the digestions were quenched with the addition of formic acid. The samples were then analyzed by nano LC/MS/MS using an EasynLC 1000 HPLC system interfaced to a ThermoFisher Q Exactive. Peptides were loaded on a trapping column and eluted over a 75 μm analytical column at 350 nL/min; both columns were packed with PepMap C18 3 μm resin (ThemoFisher). A 1 hour gradient was employed. The mass spectrometer was operated in data-dependent mode, with MS and MS/MS performed in the Orbitrap at 70,000 FWHM resolution and 17,500 FWHM resolution, respectively. The fifteen most abundant ions were selected for MS/MS. Data were searched against an appropriate database using Mascot to identify peptides. Mascot DAT files were parsed into the Scaffold software for validation, filtering and to create a nonredundant list per sample. Data were filtered at 1% protein and peptide false discovery rate (FDR) and requiring at least two unique peptides per protein. A full list of detected proteins and their spectral counts (SpC) was generated and reported as a function of each collected gel fraction. SpC are a count of the number of spectra identified for a given protein and are used as a measure of relative protein abundance (Liu, H. et al., Analytical Chemistry 2004, 76: 4193-4201). To calculate the percentage of intact protein remaining at the 10 min time point of the SGF digest the number of SpC representative of intact peptide in the t=10 min sample were divided by the number of SpC representative of intact peptide in the t=0 min sample. The number of SpC representative of intact peptide was defined as the sum of the SpC in the fraction with the highest number of SpC assigned to that protein in the t=0 min sample and the two flanking fractions.

B1: SEQID-00540: protein of the 168 nutritive polypeptide library (protein)
chain: MARIAGVDLPRDKRVEIGLTYIYGIGLSRSKEILAETGVNPDTRVKDLTDADVAALRSVIQTNYQVEGDLRRLEAMSIKRLMDIGTYRGRRHRMGLPVRGQRTRTNARTRRGVRRTVAGKKKAASKK
modifications: Arthrospira platensis C1
notes: protein of the 168 nutritive polypeptide library
As to B1, the “% Intact Protein at 10 min” value is recorded as 0%.

B2: SEQID-00544: protein of the 168 nutritive polypeptide library (protein, listed as Gadus morhua)
chain: MGTRLHQTNTMKFAALALALLLAVGSHAAAMQSDAPSQLAHIRSAVGMYLDQVKDSAARSLDHLDGTEYESYKAQLATSLDSLQASIKTAQAGAEPYTDAAVAQVMEATTEVRASIMADIETLRTGPGPKREALKKVVDGHI
For the molecule B2, the “% Intact Protein at 10 min” value came to 0%.

B3: SEQID-00555: protein of the 168 nutritive polypeptide library (protein)
chain: MQAQEIIRAIEQEEIESVKTNVQKESIPKIYVGDTVKVGVRITEGGKERIQPYQGTVIAMRNGGINETITVRRIFQGVGVERVFLLHSPRIASIKVIMRGKVRRAKLYYLRDRVGKATRVPQRFDRPL
modifications: Arthrospira platensis NIES-39
notes: as for B1
B3: the “% Intact Protein at 10 min” value is 6.8%.

B4: SEQID-00536: protein of the 168 nutritive polypeptide library (protein, listed as Solanum lycopersicum)
chain: MEEEKHHHHHLFHHKDKAEEGPVDYEKEIKHHKHLEQIGKLGTVAAGAYALHEKHEAKKDPEHAHKHKIEEEIAAAAAVGAGGFAFHEHHEKKDAKKEEKKAEGGHHHLF
On to B4, for which the “% Intact Protein at 10 min” value worked out at 11.8%.

B5: SEQID-00552: protein of the 168 nutritive polypeptide library (protein, listed as Saccharomyces cerevisiae)
chain: MSNMMNKFAEKLQGNDDSHQKGKNAKSSNKERDDMNMDMGMGHDQSEGGMKMGHDQSGTKMNAGRGIANDWKTYENMKK
modifications: source: /note="strain ATCC 204508 / S288c"
notes: as for B1
For the molecule B5, the “% Intact Protein at 10 min” value is recorded as 79%.

B6: SEQID-00534: protein of the 168 nutritive polypeptide library (protein)
chain: MSIYVGNLSYEVTEDDLTAVFAEYGSVKRVKLPTDRETGRMRGFGFVEMDTEAEEQSAIDALDGAEWCGRDLRVNKAKPRENSGSFGGGGGGRRGGGGYSRRS
modifications: Arthrospira platensis NIES-39
notes: as for B1
With B6, the “% Intact Protein at 10 min” value is listed as 0%.

B7: SEQID-00541: protein of the 168 nutritive polypeptide library (protein, listed as Agaricus bisporus)
chain: MVRISVLNDCLKSICNASRRGKRQVIVRPSSKVVVKFLSVMQRHGYIGEFEIIDDHRGGKIIVQLNGRLNKTGVISPRFNVQHNRIEQWINYLLPSRGIGIIVLTTSSGILDHEEARRKNVGGKLLGYVY
modifications: source: /note="var. bisporus"; source: /note="strain H97 / ATCC MYA-4626 / FGSC 10389"
notes: as for B1
As to B7, the “% Intact Protein at 10 min” value is listed as 0%.

B8: SEQID-00545: protein of the 168 nutritive polypeptide library (protein, listed as Saccharomyces cerevisiae)
chain: MLSRAIFRNPVINRTLLRARPGAYHATRLTKNTFIQSRKYSDAHDEETFEEFTARYEKEFDEAYDLFEVQRVLNNCFSYDLVPAPAVIEKALRAARRVNDLPTAIRVFEALKYKVENEDQYKAYLDELKDVRQELGVPLKEELFPSSS
modifications: source: /note="strain ATCC 204508 / S288c"
notes: as for B1
For the molecule B8, the “% Intact Protein at 10 min” value is 0%.
